# Biological target: tube protein gp14 (cyanophage Pam3)
# Assay: cryo-EM structure
substance,measurement,value
tube protein gp14 (natural protein),stoichiometry N,6

# Source: paper PMC9942802
